The text below walks through data of patent US20050026839A1 (GENERAL HOSPITAL, published 2005).

By IC50 is commonly meant the concentration that inhibits the measured activity by half.

Square brackets hold non-standard residues; d marks the D form. Ends that are not written are not given here. hArg = N=C(N)NCCCC[C@H](N)C(=O)O; Nle = CCCC[C@H](N)C(=O)O; Aib = CC(C)(N)C(=O)O A value given as a limit tells only on which side of the number the result lay.

In assay [1] the target is T1, truncated human P1R deleted for residues (24-181) (hP1R-delNt) (human, UniProt Q03431 182-593).
T1 construct: whole, on cells; also called delNT receptor
T1 sequence (looked up): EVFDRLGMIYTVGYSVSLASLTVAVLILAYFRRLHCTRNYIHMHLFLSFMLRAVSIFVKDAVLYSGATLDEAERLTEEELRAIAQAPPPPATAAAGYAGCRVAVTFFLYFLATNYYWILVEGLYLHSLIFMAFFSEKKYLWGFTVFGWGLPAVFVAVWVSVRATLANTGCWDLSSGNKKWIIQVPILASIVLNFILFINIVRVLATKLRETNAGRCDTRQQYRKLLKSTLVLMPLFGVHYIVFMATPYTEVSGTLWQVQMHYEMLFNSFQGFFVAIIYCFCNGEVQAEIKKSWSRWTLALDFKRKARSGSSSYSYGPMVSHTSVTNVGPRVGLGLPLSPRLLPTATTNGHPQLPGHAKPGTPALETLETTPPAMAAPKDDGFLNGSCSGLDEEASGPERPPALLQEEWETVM
As to the kind of experiment: competition binding, 125I-[Aib1,3,M]PTH(1-21) tracer, COS-7 cells expressing hP1R-delNt. The protocol:
Stock solutions of EGTA/trypsin and antibiotics were from GIBCO; fetal bovine serum was from Hyclone Laboratories (Logan, Utah). […] All cells, in 24-well plates, were treated with fresh media and shifted to 33° C. for 12 to 24 h prior to assay.
Competition Binding. Binding reactions were performed with HKRK-B28 cells or in COS-7 cells in 24-well plates. The cells were rinsed with 0.5 mL of binding buffer, and then treated successively with 100 μL binding buffer, 100 μL of binding buffer containing various amounts of unlabeled competitor ligand, and 100 μL of binding buffer containing ca. 100,000 cpm of ¹²⁵I-[M]PTH(1-21) or ¹²⁵I-[Aib^{1,3},M]PTH(1-21)} (ca. 26 fmol; final volume=300 μL). Incubations were 4 to 6 h at 4° C., at which time near equilibrium conditions were attained. Cells were then placed on ice, the binding medium was removed, and the monolayer was rinsed three times with 0.5 mL of cold binding buffer. The cells were subsequently lysed with 0.5 mL […] NaOH and counted for radioactivity. For each tracer and in each experiment, the non-specific binding was determined as the radioactivity that bound in the presence of the same unlabeled peptide at a concentration of 1 μM, and was ˜1% of total radioactivity added for each tracer. The maximum specific binding (B₀) was the total radioactivity bound in the absence of competing ligand, corrected for nonspecific binding, and for each tracer, ranged from 8% to 20% of the total radioactivity added. Nonlinear regression was used to calculate binding IC₅₀ values (see below). Scatchard transformations of homologous competition binding data derived from studies with 26 fmol of ¹²⁵I-[Aib^{1,3},M]PTH(1-21) were employed for estimations of apparent equilibrium dissociation constant (kDapps) and total number of ligand binding sites (Bₘₐₓ), assuming a single class of binding sites and equal affinities of the iodinated and non iodinated ligand.

Assay [2] deals with T2, wild-type human PTH/PTHrP receptor (hP1R-WT) (human, UniProt Q03431 27-593).
T2 sequence (looked up): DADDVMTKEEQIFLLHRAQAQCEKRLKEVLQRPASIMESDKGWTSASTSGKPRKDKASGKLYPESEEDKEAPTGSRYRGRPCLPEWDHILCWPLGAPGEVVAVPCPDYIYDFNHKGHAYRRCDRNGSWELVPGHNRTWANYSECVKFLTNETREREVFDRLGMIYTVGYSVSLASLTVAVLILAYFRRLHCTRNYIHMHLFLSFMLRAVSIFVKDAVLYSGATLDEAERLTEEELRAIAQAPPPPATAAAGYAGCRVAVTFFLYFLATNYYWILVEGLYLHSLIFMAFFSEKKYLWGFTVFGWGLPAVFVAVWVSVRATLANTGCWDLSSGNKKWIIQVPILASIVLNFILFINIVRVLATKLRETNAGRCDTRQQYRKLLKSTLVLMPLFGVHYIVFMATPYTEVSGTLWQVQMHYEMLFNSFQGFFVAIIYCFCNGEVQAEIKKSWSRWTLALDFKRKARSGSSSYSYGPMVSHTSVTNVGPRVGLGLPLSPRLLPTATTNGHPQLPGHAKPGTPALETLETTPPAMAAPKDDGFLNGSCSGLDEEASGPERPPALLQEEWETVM
As to the kind of experiment: cell-based or functional assay.

For assay [3], the target named is T2, wild-type human PTH/PTHrP receptor …. The assay is described as follows: competition binding, 125I-[M]PTH(1-21) tracer, HKRK-B28 cells, 4 h at 4 C. In a few lines:
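Cells are incubated with about 26 fmol ¹²⁵I-[M]PTH(1-21) tracer and unlabeled competitor in 300 μL for 4 h at 4 °C, then washed, lysed and counted. Nonspecific binding is defined with 1 μM of the same unlabeled peptide. IC50 values come from nonlinear regression, and the peptides are rat-PTH-based and C-terminally amidated.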

Assay [4] addresses T1, truncated human P1R deleted for …. The assay is described as follows: Scatchard transformation of homologous competition binding, COS-7 cells. The protocol: The cells were subsequently lysed with 0.5 mL […] NaOH and counted for radioactivity. For each tracer and in each experiment, the non-specific binding was determined as the radioactivity that bound in the presence of the same unlabeled peptide at a concentration of 1 μM, and was ˜1% of total radioactivity added for each tracer. The maximum specific binding (B₀) was the total radioactivity bound in the absence of competing ligand, corrected for nonspecific binding, and for each tracer, ranged from 8% to 20% of the total radioactivity added. Nonlinear regression was used to calculate binding IC₅₀ values (see below). Scatchard transformations of homologous competition binding data derived from studies with 26 fmol of ¹²⁵I-[Aib^{1,3},M]PTH(1-21) were employed for estimations of apparent equilibrium dissociation constant (kDapps) and total number of ligand binding sites (Bₘₐₓ), assuming a single class of binding sites and equal affinities of the iodinated and non iodinated ligand.
To potentially improve affinity of this peptide, the paired Aib-1,3 modifications were introduced to produce [Aib^{1,3},M]PTH(1-21). […] The total specific binding observed in COS-7 cells tranfected with vector DNA alone was<2% of total radioactivity added. This radioligand, therefore, enabled competition binding experiments to be performed with both the wild-type and truncated PTH-1 receptors.

B1: [Aib^1,3,M]PTH(1-14) (peptide)
peptide: [Aib]V[Aib]EIQLMHQ[hArg]AKW-NH2
modifications: N-terminus assumed
SMILES: CC[C@H](C)[C@H](NC(=O)[C@H](CCC(=O)O)NC(=O)C(C)(C)NC(=O)[C@@H](NC(=O)C(C)(C)N)C(C)C)C(=O)N[C@@H](CCC(N)=O)C(=O)N[C@@H](CC(C)C)C(=O)N[C@@H](CCSC)C(=O)N[C@@H](Cc1c[nH]cn1)C(=O)N[C@@H](CCC(N)=O)C(=O)N[C@@H](CCCCNC(=N)N)C(=O)N[C@@H](C)C(=O)N[C@@H](CCCCN)C(=O)N[C@@H](Cc1c[nH]c2ccccc12)C(N)=O
notes: also called 671 [Aib^1,3, M]PTH (1-14); 671 [Aib^1,3M]PTH(1-14)
As for B1, the IC50 turned out to be 1600 nM in assay [1] and 130 nM in assay [3]. The “cAMP EMAX(obs.) in SaOS-2 cells” value in assay [2] is 320 pmole/well.

B2: [Aib^1,3,M]PTH(1-21) (peptide)
peptide: [Aib]V[Aib]EIQL[Nle]HQ[hArg]AKWLASVRRY-NH2
modifications: N-terminus assumed
SMILES: CCCC[C@H](NC(=O)[C@H](CC(C)C)NC(=O)[C@H](CCC(N)=O)NC(=O)[C@@H](NC(=O)[C@H](CCC(=O)O)NC(=O)C(C)(C)NC(=O)[C@@H](NC(=O)C(C)(C)N)C(C)C)[C@@H](C)CC)C(=O)N[C@@H](Cc1c[nH]cn1)C(=O)N[C@@H](CCC(N)=O)C(=O)N[C@@H](CCCCNC(=N)N)C(=O)N[C@@H](C)C(=O)N[C@@H](CCCCN)C(=O)N[C@@H](Cc1c[nH]c2ccccc12)C(=O)N[C@@H](CC(C)C)C(=O)N[C@@H](C)C(=O)N[C@@H](CO)C(=O)N[C@H](C(=O)N[C@@H](CCCNC(=N)N)C(=O)N[C@@H](CCCNC(=N)N)C(=O)N[C@@H](Cc1ccc(O)cc1)C(N)=O)C(C)C
notes: unlabeled peptide; also called 674 [Aib^1,3, M]PTH (1-21); 674 [Aib^1,3M]PTH(1-21)
For the molecule B2, the IC50 in assay [1] came out at 27 nM; in assay [3], 31 nM. Further, the “fold weaker affinity at P1R-delNt than at P1R-WT” value in assay [4] was less than 2 fold.
